Results published in patent US8962819B2, “Anti-C5 alpha antibodies” (Adienne S.A., priority 2002, dated 2015).
Entries after “also recorded” stand apart in the source; their conditions may differ.

What was measured:
[1] = biological target: T1, C5 (Homo sapiens, UniProt P01031); assay: Hemolytic assay, alternative pathway (rabbit erythrocytes); assay type: biochemical; details: 600 ng scFv, increasing amounts of C5, FIG. 4B
T1 construct: C5 alpha and beta subunits were obtained by incubating 50 μg of C5; purchased Quidel
Method: (§1) Values from spectrophotometric reading performed at 412 nm to measure inhibition of lysis of sheep erythrocytes coated with EAC1-3b, through the classical complement activation pathway (A Panel); or of rabbit erythrocytes in order to measure the alternative pathway of complement activation (B Panel). Increasing amounts of C5 were mixed with 600 ng of the scFv antibody of the invention with an unrelated scFv, or with GVBS in which the scFv of the invention were solubilised, as described in example 9. After incubation with serum lacking in C5, obtained from a patient with selective deficiency of this complement component, the percentage of hemolysis was measured compared to the 100% value obtained by lysing erythrocytes in an equal volume of distilled H2O and a blank obtained by resuspending eythrocytes in GBVS. Having assessed the characteristics of the inhibition of the classical activation pathway of factor C5 by the TS-A12/22 antibody, it was then verified whether there was inhibition also of the alternative pathway of C5 activation, and at which level. […] After incubation for 30 minutes at 37° C., the percentage of erythrocyte lysis was measured by comparison to a 100% value obtained by lysing erythrocytes with an equal volume of distilled of H2O and to a blank consisting of erythrocytes re-suspended in GBVS. […]

[2] = biological target: T1, C5; assay: Hemolytic assay, classical pathway (EAC1-3b sheep erythrocytes); assay type: biochemical; details: 600 ng scFv, increasing amounts of C5, FIG. 4A
Method: as §1

[3] = tested on: C5 hemolytic activity in rabbit serum; assay: Inhibition of C5 hemolytic activity in serum; assay type: biochemical
Method: (§2) Measurements were performed as described in example 8, using sera from human (panel A), rat (panel B), rabbit (panel C), mouse (panel D). Since the amino acid sequence corresponding to the cleavage site of convertase on the C5 alpha chain is conserved in several animal species, it was furthermore evaluated, by hemolytic assay, the ability of TS-A12/22 antibody to inhibit conversion of C5 to C5a also in rabbit, mouse and rat sera.

[4] = biological target: T2, C5 hemolytic activity in rat serum (Rattus norvegicus, UniProt P08650); assay: Inhibition of C5 hemolytic activity in serum; assay type: biochemical
T2 construct: from tissue; host or cells: rat serum
Method: as §2

[5] = biological target: T3, C5 hemolytic activity in human serum (Homo sapiens, UniProt P01031); assay: Inhibition of C5 hemolytic activity in serum; assay type: biochemical; details: FIG. 5A
T3 construct: from tissue; host or cells: human serum
Method: as §2

[6] = biological target: T4, C5 hemolytic activity in mouse serum (Mus musculus, UniProt P06684); assay: Inhibition of C5 hemolytic activity in serum; assay type: biochemical; details: FIG. 5D
T4 construct: from tissue; host or cells: mouse serum
Method: as §2

[7] = tested on: C4; assay: Specificity on other complement components; assay type: binding
Method: (§3) (The specificity of TS-A12/22 antibody was evaluated also on other components of the complement cascade, as for instance C3 and C4, which are structurally similar to C5, but cross-reactivity was not found).

[8] = biological target: C3 (Homo sapiens, UniProt P01024); assay: Specificity on other complement components; assay type: binding
Method: as §3

[9] = biological target: T1, C5; assay: ELISA of C5a released after cleavage of C5 by C5 convertase; assay type: biochemical; details: FIG. 1A, classical pathway
Method: Panel A) The ELISA assay measures the amount of C5a fragment released in the supernatant after enzymatic cleavage of C5, using antibodies anti-C5 as described in example 6. […] Sheep erythrocytes sensitised with antibodies and coated until the C3b (EAC1-3b) complement step were added to the mixture of TS-A12 or TS-A12/22 and C5, and the mixture was further incubated for 30 minutes at 37° C. (panel B).
The obtained anti-C5 scFv fragments were further characterised for their ability to inhibit the hemolytic activity of C5 or, in other words, to block conversion of the C5 component to C5a. […] At the end of this procedure, cell lysis was measured as percentage of the control of total lysis in distilled H2O (see FIG. 1, panel B). The inhibition of C5a and TCC production by the scFv TS-A12 and TS-A12/22 was measured by means of ELISA using the monoclonal antibody 17/5 as the capture antibody and antibody G25/2 as detection antibody according to what has been described in Opperman et al., 1991, Complement Inflamm. […] The presence of TCC was measured using antibody aE11 as the capture antibody and a biotinylated anti-C5 antibody (SIGMA-ALDRICH®) followed by alkaline phosphatase-conjugated streptavidin, as described by Tedesco et al. (1997, J Exp. Med. 185:1619).

T2 sequence (P08650 679-1681 limits assumed): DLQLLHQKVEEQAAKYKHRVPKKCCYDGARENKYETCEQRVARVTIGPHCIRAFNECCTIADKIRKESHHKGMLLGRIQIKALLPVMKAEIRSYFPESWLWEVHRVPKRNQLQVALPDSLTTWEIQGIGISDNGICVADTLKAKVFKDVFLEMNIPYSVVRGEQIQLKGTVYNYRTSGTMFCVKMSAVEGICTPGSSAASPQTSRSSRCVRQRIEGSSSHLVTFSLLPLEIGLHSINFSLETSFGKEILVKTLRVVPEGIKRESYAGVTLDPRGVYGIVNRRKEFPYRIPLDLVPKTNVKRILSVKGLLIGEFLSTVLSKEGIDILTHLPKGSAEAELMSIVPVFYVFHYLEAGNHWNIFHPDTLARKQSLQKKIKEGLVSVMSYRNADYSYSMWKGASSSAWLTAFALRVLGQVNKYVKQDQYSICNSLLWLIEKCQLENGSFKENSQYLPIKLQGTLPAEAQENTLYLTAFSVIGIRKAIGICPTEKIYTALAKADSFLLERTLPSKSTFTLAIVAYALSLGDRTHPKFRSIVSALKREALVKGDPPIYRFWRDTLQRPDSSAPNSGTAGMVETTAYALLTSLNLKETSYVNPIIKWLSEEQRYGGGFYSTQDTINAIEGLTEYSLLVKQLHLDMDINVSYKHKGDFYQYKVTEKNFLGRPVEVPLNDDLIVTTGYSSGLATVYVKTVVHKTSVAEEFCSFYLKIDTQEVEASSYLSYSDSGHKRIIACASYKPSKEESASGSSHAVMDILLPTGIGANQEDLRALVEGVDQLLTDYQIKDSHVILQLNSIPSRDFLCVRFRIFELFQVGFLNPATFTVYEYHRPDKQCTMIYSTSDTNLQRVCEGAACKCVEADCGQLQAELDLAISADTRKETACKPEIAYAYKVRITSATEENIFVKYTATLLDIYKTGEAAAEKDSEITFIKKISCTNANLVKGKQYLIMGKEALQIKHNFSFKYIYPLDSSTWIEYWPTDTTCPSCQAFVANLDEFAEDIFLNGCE
T2 sequence (P08650 19-674 limits assumed): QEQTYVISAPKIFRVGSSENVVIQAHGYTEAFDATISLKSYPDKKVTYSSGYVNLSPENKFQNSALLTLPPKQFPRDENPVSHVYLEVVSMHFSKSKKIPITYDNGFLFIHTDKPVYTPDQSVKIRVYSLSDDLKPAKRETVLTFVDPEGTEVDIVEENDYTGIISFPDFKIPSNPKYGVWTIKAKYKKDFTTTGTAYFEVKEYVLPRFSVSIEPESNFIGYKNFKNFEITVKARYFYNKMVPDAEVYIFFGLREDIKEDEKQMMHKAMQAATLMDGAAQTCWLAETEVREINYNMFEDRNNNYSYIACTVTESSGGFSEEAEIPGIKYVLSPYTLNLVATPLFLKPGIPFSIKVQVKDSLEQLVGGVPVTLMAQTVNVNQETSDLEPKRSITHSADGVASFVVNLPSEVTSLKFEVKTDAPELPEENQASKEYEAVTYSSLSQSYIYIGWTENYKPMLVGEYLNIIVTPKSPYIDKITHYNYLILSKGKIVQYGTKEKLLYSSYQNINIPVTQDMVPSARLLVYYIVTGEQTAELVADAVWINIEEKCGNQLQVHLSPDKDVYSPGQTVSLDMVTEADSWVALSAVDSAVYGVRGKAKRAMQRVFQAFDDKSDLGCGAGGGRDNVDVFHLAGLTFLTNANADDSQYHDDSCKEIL
T1 sequence (P01031 678-1676 limits assumed): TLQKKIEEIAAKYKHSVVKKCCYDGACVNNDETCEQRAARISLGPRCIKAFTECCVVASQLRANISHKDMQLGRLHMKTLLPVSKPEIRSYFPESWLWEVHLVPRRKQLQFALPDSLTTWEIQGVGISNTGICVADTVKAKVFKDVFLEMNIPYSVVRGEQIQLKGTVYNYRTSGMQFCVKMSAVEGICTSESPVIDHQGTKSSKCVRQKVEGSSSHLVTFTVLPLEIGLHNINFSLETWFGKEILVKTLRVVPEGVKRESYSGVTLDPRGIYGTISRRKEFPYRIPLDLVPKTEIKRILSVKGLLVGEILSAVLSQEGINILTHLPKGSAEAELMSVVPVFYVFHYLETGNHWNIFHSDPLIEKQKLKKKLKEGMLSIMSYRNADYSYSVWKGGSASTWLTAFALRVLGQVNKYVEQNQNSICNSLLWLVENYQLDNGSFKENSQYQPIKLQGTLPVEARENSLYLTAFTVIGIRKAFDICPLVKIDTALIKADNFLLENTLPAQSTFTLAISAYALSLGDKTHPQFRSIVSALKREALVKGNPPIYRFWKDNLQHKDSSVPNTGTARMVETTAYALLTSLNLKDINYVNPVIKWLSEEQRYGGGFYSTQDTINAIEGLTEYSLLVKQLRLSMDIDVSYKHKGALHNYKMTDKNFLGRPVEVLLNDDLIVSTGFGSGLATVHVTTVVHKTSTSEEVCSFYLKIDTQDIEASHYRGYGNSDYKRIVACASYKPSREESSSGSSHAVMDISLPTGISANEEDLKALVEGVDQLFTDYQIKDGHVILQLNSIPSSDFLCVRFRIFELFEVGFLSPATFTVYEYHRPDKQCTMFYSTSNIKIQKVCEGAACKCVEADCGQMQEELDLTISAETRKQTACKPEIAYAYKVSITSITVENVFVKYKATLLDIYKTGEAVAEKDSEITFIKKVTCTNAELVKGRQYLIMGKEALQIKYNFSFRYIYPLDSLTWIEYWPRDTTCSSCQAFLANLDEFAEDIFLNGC
T1 sequence (P01031 19-673 partner limits assumed): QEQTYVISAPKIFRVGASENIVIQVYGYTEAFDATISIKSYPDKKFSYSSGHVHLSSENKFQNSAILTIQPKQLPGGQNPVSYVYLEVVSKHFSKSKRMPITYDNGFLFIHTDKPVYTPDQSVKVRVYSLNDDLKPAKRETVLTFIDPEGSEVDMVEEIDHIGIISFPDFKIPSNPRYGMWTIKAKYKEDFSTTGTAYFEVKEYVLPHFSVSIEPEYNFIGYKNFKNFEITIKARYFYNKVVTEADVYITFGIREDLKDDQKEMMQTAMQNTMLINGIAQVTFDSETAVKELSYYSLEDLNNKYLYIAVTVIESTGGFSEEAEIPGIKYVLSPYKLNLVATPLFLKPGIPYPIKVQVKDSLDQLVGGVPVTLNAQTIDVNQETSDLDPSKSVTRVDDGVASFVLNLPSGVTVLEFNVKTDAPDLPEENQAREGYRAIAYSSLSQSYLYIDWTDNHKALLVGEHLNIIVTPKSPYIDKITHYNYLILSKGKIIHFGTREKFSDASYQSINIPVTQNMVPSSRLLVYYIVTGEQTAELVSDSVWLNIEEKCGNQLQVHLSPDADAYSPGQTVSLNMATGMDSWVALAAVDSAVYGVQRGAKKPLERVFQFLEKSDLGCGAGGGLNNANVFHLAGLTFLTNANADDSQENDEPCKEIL
Chain of C3 (P01024 23-1663): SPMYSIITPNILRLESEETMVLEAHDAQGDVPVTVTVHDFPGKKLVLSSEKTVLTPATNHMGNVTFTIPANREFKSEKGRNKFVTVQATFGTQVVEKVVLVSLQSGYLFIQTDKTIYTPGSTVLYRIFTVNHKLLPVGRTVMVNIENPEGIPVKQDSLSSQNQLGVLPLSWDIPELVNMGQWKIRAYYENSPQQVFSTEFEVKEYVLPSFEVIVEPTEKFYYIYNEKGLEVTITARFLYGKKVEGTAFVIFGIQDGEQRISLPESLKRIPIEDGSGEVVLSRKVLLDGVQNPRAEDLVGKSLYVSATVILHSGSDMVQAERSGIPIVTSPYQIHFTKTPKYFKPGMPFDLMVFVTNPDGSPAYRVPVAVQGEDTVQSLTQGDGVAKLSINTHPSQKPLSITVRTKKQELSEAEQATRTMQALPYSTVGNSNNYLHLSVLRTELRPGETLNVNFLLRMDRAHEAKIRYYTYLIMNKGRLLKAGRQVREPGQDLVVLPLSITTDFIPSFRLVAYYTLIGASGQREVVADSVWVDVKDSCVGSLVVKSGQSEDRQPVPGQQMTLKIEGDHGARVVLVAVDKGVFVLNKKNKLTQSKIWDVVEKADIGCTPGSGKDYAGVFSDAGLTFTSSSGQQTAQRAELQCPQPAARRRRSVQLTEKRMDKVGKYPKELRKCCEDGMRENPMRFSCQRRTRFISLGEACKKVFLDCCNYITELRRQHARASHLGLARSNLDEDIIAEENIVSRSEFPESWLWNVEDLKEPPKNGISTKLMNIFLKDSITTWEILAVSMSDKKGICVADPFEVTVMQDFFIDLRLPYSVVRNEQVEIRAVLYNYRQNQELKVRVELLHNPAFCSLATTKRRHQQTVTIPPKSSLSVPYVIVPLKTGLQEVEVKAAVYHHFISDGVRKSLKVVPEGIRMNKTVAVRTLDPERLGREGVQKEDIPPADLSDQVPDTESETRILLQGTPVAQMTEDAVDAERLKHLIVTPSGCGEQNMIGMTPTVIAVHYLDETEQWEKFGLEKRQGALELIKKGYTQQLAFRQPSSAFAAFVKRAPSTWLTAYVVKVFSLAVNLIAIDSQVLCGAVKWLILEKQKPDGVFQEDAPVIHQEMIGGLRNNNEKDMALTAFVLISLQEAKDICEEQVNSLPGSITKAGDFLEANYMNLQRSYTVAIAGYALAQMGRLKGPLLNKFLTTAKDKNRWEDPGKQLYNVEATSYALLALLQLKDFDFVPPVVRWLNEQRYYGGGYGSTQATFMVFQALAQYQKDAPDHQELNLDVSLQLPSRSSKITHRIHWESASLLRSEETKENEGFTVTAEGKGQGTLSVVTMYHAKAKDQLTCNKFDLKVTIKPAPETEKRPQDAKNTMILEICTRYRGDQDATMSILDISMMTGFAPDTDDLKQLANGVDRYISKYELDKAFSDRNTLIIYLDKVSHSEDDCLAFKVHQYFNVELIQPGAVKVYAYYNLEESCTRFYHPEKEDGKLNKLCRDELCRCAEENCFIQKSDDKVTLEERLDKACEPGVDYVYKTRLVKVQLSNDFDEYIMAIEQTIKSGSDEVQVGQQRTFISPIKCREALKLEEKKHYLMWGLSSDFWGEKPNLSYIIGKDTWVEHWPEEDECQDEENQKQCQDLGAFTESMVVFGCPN
T3 sequence (P01031 678-1676 limits assumed): as the sequence (P01031 678-1676 limits assumed) above
T3 sequence (P01031 19-673 partner limits assumed): as the sequence (P01031 19-673 partner limits assumed) above

B1: TS-A12/22: anti-C5 scFv obtained from TS-A12 by VL chain shuffling; VH3/V-48 and Vλ3/V2-14; amino acid sequence SEQ ID NO:6 (protein, listed as Homo sapiens)
scFv: DIRMTQSPDSLAVSLGERATINCKSSQSVLYSSNNKNYLAWYQQKPGQPPKLLIYWASTRESGVPDRFSGSGSGTDFTLTISSLQAEDVAVYYCQQYYSTPQLTFGGRTKVDIKSGGSTITSYNVYYTKLSSSGTQVQLQQSEGGVVQPGRSLRLSCAASGFTFSSYGMNWVRQAPGKGLEWVSYISSSSSTIYYADSVKGRFTISRDNSKNTLYLQMNSLRAEDTAVYYCARGPGMDVWGQGTTVTVSS
Question: For B1, which “inhibition of lysis of rabbit erythrocytes through the alternative pathway” value [1] is on record?
Answer: inhibits

Question: And the “inhibition of erythrocyte lysis through the classical pathway” value [2]?
Answer: inhibits

Question: And the “efficiency of inhibition compared with human serum” value [3]?
Answer: higher

Question: What about the “inhibition of hemolytic activity in serum” value (“inhibition … in serum” below) ([3]; FIG. 5C) of the same molecule?
Answer: capable of inhibiting

Question: What about the “efficiency of inhibition compared with human serum” value [4] of the same molecule?
Answer: practically similar to that of human serum; also recorded: higher

Question: What about the “inhibition … in serum” value ([4]; FIG. 5B) of the same molecule?
Answer: capable of inhibiting

Question: And the “inhibition … in serum” value [5]?
Answer: capable of inhibiting

Question: And the “inhibition … in serum” value [6]?
Answer: capable of inhibiting

Question: And the “cross-reactivity with C4” value [7]?
Answer: not found

Question: What about the “cross-reactivity with C3” value [8] of the same molecule?
Answer: not found

Question: And the “inhibition of formation of C5a” value [9]?
Answer: inhibit almost completely
